The results in this text go back to patent publication US20220185907A1.

For assay [1], the target named is CD38 on cells (Raji, Daudi, REH, CD38-transfected HEK293) (human) (UniProt P28907). The assay is described as follows: flow cytometry on Raji cells; top asymptote fixed at about the maximum response of Darzalex. In general terms: In flow cytometry, cells or beads pass a laser one at a time.
Assay [2] has the same target. The assay is described as follows: flow cytometry on Raji cells (express CD19 and CD38), 11 concentrations from 30 ug/mL.
For assay [3] the target is unchanged. The assay can be described thus: flow cytometry on Raji cells (express CD19 and CD38).

Broadly, the EC50 is the concentration that produces a half-maximal response. Low values mean a more potent agent, high ones a less potent agent. With Darzalex® (CD38 control) (antibody), the Adjusted EC50 in assay [1] came out at 1.27 nM. Moreover, in assay [2], the EC50 is 0.195 µg/mL and the Max MFI stood at 4.02e+06 MFI. For the same substance, the EC50 in assay [3] came to 1.27 nM.
